Laboratory results as given in the supplement of paper PMC10567573.

B1: TFE3 (parent)
chain: FHLGLEDILMEEEEGVVGGLSGGA
B2: ADD1 (parent)
chain: FASDGDSGTCSPLRHSFQKQQREK

Variants of: B1
Test: protein stability index of a GFP-peptide fusion (GPS, HEK-293T) (PSI 1-6); higher = more stable
Conditions: c terminus: a fixed tail appended
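Further: lentivirally expressed fusions sorted by FACS into six bins by GFP to DsRed ratio, PSI derived from sequencing read proportions per bin multiplied by bin number.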

Protein stability index: each site, then its substitutions
V17: N 4.76; L 3.61
M10: T 3.88; V 3.83; E 4.27; P 4.18; F 3.83; A 4; W 3.57; C 3.83; L 3.44; I 3.81; G 4.02; R 3.23; S 4.08
H2: T 4.23; L 3.46; Q 4.44; A 4.12; W 2.94; Y 3.56; M 4.29; C 3.96; P 4.26; K 4.38; G 4.41
E11: Y 2.38; Q 2.91; M 1.82; D 3.66; R 3.33; A 3.08; N 3.11; K 3.35; P 2.7; W 2.57
E6: F 2.33; Y 2.31; I 1.88; W 2.02; T 3.04
G22: V 3.9; L 3.31; F 3.34; C 3.3; R 3.39; P 3.64; D 3.5; N 3.72; S 3.57; A 3.81; T 4.26; M 3.59
G4: P 3.05; T 3.08; L 2.46; R 2.5; N 3.48; H 2.94; E 4.89; I 2.1; D 3.99; Y 1.86
E12: N 3.01; I 2.51; T 3.72; D 3.77; W 1.76; F 2.14; R 2.47; Y 2.63; G 3.02; K 3.2
I8: Y 3.99; F 3.17; D 4.59; N 4.25; A 4.33; V 4.08; G 4.2
F1: I 4.57; K 5.06; D 5.21; C 4.89; S 4.96; R 4.44; M 4.85; T 4.02; G 4.95; H 5.11; Q 5.15; N 5.56; V 4.56

Variants of: B2
Test: as above
Conditions: c terminus: a fixed tail appended

Protein stability index of substitutions, site by site:
K24: C 3.41; I 3.17; Q 3.82; T 3.88; N 3.57; S 3.4; A 2.92; L 3.15; P 3.42; F 2.96; E 4.01; W 3.08; Y 2.83; R 3.14; H 3.25; V 3.13; M 2.46; G 3.41; D 3.83
E23: G 3.21; V 3.58; N 3.6; L 3.57; F 2.74; R 3.79; W 2.94; Q 4.04; C 3.37; H 3.66; D 3.11; Y 3.25; T 3.67; A 3.7; K 4.34; S 3.66; I 2.76; P 3.29
Q21: E 3.84; W 3.49; S 3.64; F 3.89; L 3.26; G 3.94; Y 3.17; R 3.75; T 3.99; M 3.48; C 3.57; K 3.75; I 3.42; V 3.06; H 3.4; N 4.04; P 3.67; D 2.81
R22: Y 4.09; K 4.57; Q 3.84; G 4.24; L 3.27; D 4.51; M 3.77; W 3.28; C 3.57; E 4.23; T 3.48; H 3.84; N 3.42; F 3.63; A 3.68; I 3.68; V 3.35; P 3.57; S 4.21
